Test results reported in paper PMC9812370 (Cell Reports, 2023).

Target: SARS-CoV-2 wild-type (D614G) HexaPro S protein ectodomain (SARS-CoV-2 Wuhan-Hu-1 with D614G …, D614G)
Assay: ELISA

B1: Fab 4A8 (Fab, V domains shown)
VH: EVQLVESGAEVKKPGASVKVSCKVSGYTLTELSMHWVRQAPGKGLEWMGGFDPEDGETMYAQKFQGRVTMTEDTSTDTAYMELSSLRSEDTAVYYCATSTAVAGTPDLFDYYYGMDVWGQGTTVTVSS
VL: EIVMTQSPLSSPVTLGQPASISCRSSQSLVHSDGNTYLSWLQQRPGQPPRLLIYKISNRFSGVPDRFSGSGAGTDFTLKISRVEAEDVGVYYCTQATQFPYTFGQGTKVDIK
B1: binds.
